From publication PMC4475461
Like-named read-outs stand apart in the source and are kept apart here.

Key:
HLTF HIRAN domain [1] = target: T1, HLTF HIRAN domain (Homo sapiens, UniProt Q14527 55-180); experiment: NMR
T1 sequence: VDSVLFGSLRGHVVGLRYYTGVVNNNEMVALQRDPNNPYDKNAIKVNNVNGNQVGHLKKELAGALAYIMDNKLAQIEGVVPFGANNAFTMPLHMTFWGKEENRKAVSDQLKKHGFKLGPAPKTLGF

HLTF HIRAN domain [2] = target: T1, HLTF HIRAN domain; experiment: NMR; remark: listed apart in the source

TTTTTTTTTT (ssDNA) [dT10 (NMR)]
binding result (HLTF HIRAN domain [1]): binds

GCTGATAAAT (ssDNA) [d(GCTGATAAAT)]
binding result (HLTF HIRAN domain [2]): binds

B1: d(GCTGATAAAT) duplex (dsDNA)
DNA 1: GCTGATAAAT
DNA 2: ATTTATCAGC
binding result (HLTF HIRAN domain [2]): no binding
